Laboratory results reported in patent US20140087995A1 (published 2014).
Numbered stars: 1 amine (or outer) side, 2 acyl side, 3 side chain; on linkers, the order of the positions; unused ones are H or OH. Bridge positions count the residues as written; N and C are the ends. Side chains are listed from the residue outwards. Ends that are not written are not given here. * marks the point of attachment. C20 diacid = O=C(O)CCCCCCCCCCCCCCCCCCC(=O)*; γGlu = O=C(O)[C@H](CCC(=O)[*:2])N[*:1]; C14 diacid = O=C(O)CCCCCCCCCCCCC(=O)*

T1: human calcitonin receptor (human, UniProt P30988 25-474)
T1 construct: whole, on cells; Used as cell membranes; also called hCTR; hCT
T1 sequence (looked up): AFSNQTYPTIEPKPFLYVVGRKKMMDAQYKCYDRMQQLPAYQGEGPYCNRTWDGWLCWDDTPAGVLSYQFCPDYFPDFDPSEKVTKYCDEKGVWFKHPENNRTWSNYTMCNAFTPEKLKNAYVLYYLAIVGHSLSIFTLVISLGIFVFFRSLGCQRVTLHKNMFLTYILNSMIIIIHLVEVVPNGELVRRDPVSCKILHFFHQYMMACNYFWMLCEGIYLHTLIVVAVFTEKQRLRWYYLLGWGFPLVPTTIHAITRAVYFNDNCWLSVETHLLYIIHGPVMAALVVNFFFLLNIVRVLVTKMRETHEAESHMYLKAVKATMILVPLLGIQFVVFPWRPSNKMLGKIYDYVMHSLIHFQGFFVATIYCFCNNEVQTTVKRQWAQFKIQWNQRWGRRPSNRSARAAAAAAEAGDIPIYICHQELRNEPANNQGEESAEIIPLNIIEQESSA

T2: human amylin receptor (amylin 3(a) receptor: human calcitonin receptor with RAMP-3) (human, UniProt P30988 25-474; O60896 24-148)
T2 construct: whole, on cells; Used as cell membranes of the Amylin 3(a)/CRE-luc BHK cells; the species of RAMP-3 is only implied by the name human amylin receptor; also called hAmylin-R; hAmylinR
T2 sequence (looked up) 1: T1 sequence (looked up)
T2 sequence (looked up) 2: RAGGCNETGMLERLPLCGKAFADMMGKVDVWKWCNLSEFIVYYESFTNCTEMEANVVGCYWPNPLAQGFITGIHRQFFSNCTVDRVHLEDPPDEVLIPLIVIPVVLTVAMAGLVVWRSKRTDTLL

B1: N^ε1-[(4S)-4-carboxy-4-[[(4S)-4-carboxy-4-(19-carboxynonadecanoylamino)butanoyl]amino]butanoyl]-[Arg17,Pro21,Pro27,His34]-h-amylin (peptide)
peptide: K([γGlu-γGlu-C20 diacid])CNTATCATQRLANFLRHSSPNFGAIPSSTNVGHNTY-NH2
modifications: disulfide 2-7; N-terminus assumed
SMILES: CC[C@H](C)[C@H](NC(=O)[C@H](C)NC(=O)CNC(=O)[C@H](Cc1ccccc1)NC(=O)[C@H](CC(N)=O)NC(=O)[C@@H]1CCCN1C(=O)[C@H](CO)NC(=O)[C@H](CO)NC(=O)[C@H](Cc1c[nH]cn1)NC(=O)[C@H](CCCNC(=N)N)NC(=O)[C@H](CC(C)C)NC(=O)[C@H](Cc1ccccc1)NC(=O)[C@H](CC(N)=O)NC(=O)[C@H](C)NC(=O)[C@H](CC(C)C)NC(=O)[C@H](CCCNC(=N)N)NC(=O)[C@H](CCC(N)=O)NC(=O)[C@@H](NC(=O)[C@H](C)NC(=O)[C@@H]1CSSC[C@H](NC(=O)[C@@H](N)CCCCNC(=O)CC[C@H](NC(=O)CC[C@H](NC(=O)CCCCCCCCCCCCCCCCCCC(=O)O)C(=O)O)C(=O)O)C(=O)N[C@@H](CC(N)=O)C(=O)N[C@@H]([C@@H](C)O)C(=O)N[C@@H](C)C(=O)N[C@@H]([C@@H](C)O)C(=O)N1)[C@@H](C)O)C(=O)N1CCC[C@H]1C(=O)N[C@@H](CO)C(=O)N[C@@H](CO)C(=O)N[C@H](C(=O)N[C@@H](CC(N)=O)C(=O)N[C@H](C(=O)NCC(=O)N[C@@H](Cc1c[nH]cn1)C(=O)N[C@@H](CC(N)=O)C(=O)N[C@H](C(=O)N[C@@H](Cc1ccc(O)cc1)C(N)=O)[C@@H](C)O)C(C)C)[C@@H](C)O
notes: also called compound 86
B2: N^-1-[(4S)-4-carboxy-4-(19-carboxynonadecanoylamino)butanoyl]-Gly[Arg1,His14,Arg17,Pro21,Pro27,His34]-h-amylin (peptide)
peptide: {C20 diacid-γGlu}-GRCNTATCATQRLAHFLRHSSPNFGAIPSSTNVGHNTY-NH2
modifications: disulfide 3-8
SMILES: CC[C@H](C)[C@H](NC(=O)[C@H](C)NC(=O)CNC(=O)[C@H](Cc1ccccc1)NC(=O)[C@H](CC(N)=O)NC(=O)[C@@H]1CCCN1C(=O)[C@H](CO)NC(=O)[C@H](CO)NC(=O)[C@H](Cc1c[nH]cn1)NC(=O)[C@H](CCCNC(=N)N)NC(=O)[C@H](CC(C)C)NC(=O)[C@H](Cc1ccccc1)NC(=O)[C@H](Cc1c[nH]cn1)NC(=O)[C@H](C)NC(=O)[C@H](CC(C)C)NC(=O)[C@H](CCCNC(=N)N)NC(=O)[C@H](CCC(N)=O)NC(=O)[C@@H](NC(=O)[C@H](C)NC(=O)[C@@H]1CSSC[C@H](NC(=O)[C@H](CCCNC(=N)N)NC(=O)CNC(=O)CC[C@H](NC(=O)CCCCCCCCCCCCCCCCCCC(=O)O)C(=O)O)C(=O)N[C@@H](CC(N)=O)C(=O)N[C@@H]([C@@H](C)O)C(=O)N[C@@H](C)C(=O)N[C@@H]([C@@H](C)O)C(=O)N1)[C@@H](C)O)C(=O)N1CCC[C@H]1C(=O)N[C@@H](CO)C(=O)N[C@@H](CO)C(=O)N[C@H](C(=O)N[C@@H](CC(N)=O)C(=O)N[C@H](C(=O)NCC(=O)N[C@@H](Cc1c[nH]cn1)C(=O)N[C@@H](CC(N)=O)C(=O)N[C@H](C(=O)N[C@@H](Cc1ccc(O)cc1)C(N)=O)[C@@H](C)O)C(C)C)[C@@H](C)O
notes: 38 residues; also called compound 100
B3: N^ε1-[(4S)-4-carboxy-4-(19-carboxynonadecanoylamino)butanoyl]-[His14,Arg17,Pro21,Pro27,Arg34]-h-amylin (peptide)
peptide: K([γGlu-C20 diacid])CNTATCATQRLAHFLRHSSPNFGAIPSSTNVGRNTY-NH2
modifications: disulfide 2-7; N-terminus assumed
SMILES: CC[C@H](C)[C@H](NC(=O)[C@H](C)NC(=O)CNC(=O)[C@H](Cc1ccccc1)NC(=O)[C@H](CC(N)=O)NC(=O)[C@@H]1CCCN1C(=O)[C@H](CO)NC(=O)[C@H](CO)NC(=O)[C@H](Cc1c[nH]cn1)NC(=O)[C@H](CCCNC(=N)N)NC(=O)[C@H](CC(C)C)NC(=O)[C@H](Cc1ccccc1)NC(=O)[C@H](Cc1c[nH]cn1)NC(=O)[C@H](C)NC(=O)[C@H](CC(C)C)NC(=O)[C@H](CCCNC(=N)N)NC(=O)[C@H](CCC(N)=O)NC(=O)[C@@H](NC(=O)[C@H](C)NC(=O)[C@@H]1CSSC[C@H](NC(=O)[C@@H](N)CCCCNC(=O)CC[C@H](NC(=O)CCCCCCCCCCCCCCCCCCC(=O)O)C(=O)O)C(=O)N[C@@H](CC(N)=O)C(=O)N[C@@H]([C@@H](C)O)C(=O)N[C@@H](C)C(=O)N[C@@H]([C@@H](C)O)C(=O)N1)[C@@H](C)O)C(=O)N1CCC[C@H]1C(=O)N[C@@H](CO)C(=O)N[C@@H](CO)C(=O)N[C@H](C(=O)N[C@@H](CC(N)=O)C(=O)N[C@H](C(=O)NCC(=O)N[C@@H](CCCNC(=N)N)C(=O)N[C@@H](CC(N)=O)C(=O)N[C@H](C(=O)N[C@@H](Cc1ccc(O)cc1)C(N)=O)[C@@H](C)O)C(C)C)[C@@H](C)O
notes: also called compound 85
B4: N^ε1-[(4S)-4-carboxy-4-[[(4S)-4-carboxy-4-(19-carboxynonadecanoylamino)butanoyl]amino]butanoyl]-[Glu14,Arg17,Pro21,Pro27,Arg35]-h-amylin (peptide)
peptide: K([γGlu-γGlu-C20 diacid])CNTATCATQRLAEFLRHSSPNFGAIPSSTNVGSRTY-NH2
modifications: disulfide 2-7; N-terminus assumed
SMILES: CC[C@H](C)[C@H](NC(=O)[C@H](C)NC(=O)CNC(=O)[C@H](Cc1ccccc1)NC(=O)[C@H](CC(N)=O)NC(=O)[C@@H]1CCCN1C(=O)[C@H](CO)NC(=O)[C@H](CO)NC(=O)[C@H](Cc1c[nH]cn1)NC(=O)[C@H](CCCNC(=N)N)NC(=O)[C@H](CC(C)C)NC(=O)[C@H](Cc1ccccc1)NC(=O)[C@H](CCC(=O)O)NC(=O)[C@H](C)NC(=O)[C@H](CC(C)C)NC(=O)[C@H](CCCNC(=N)N)NC(=O)[C@H](CCC(N)=O)NC(=O)[C@@H](NC(=O)[C@H](C)NC(=O)[C@@H]1CSSC[C@H](NC(=O)[C@@H](N)CCCCNC(=O)CC[C@H](NC(=O)CC[C@H](NC(=O)CCCCCCCCCCCCCCCCCCC(=O)O)C(=O)O)C(=O)O)C(=O)N[C@@H](CC(N)=O)C(=O)N[C@@H]([C@@H](C)O)C(=O)N[C@@H](C)C(=O)N[C@@H]([C@@H](C)O)C(=O)N1)[C@@H](C)O)C(=O)N1CCC[C@H]1C(=O)N[C@@H](CO)C(=O)N[C@@H](CO)C(=O)N[C@H](C(=O)N[C@@H](CC(N)=O)C(=O)N[C@H](C(=O)NCC(=O)N[C@@H](CO)C(=O)N[C@@H](CCCNC(=N)N)C(=O)N[C@H](C(=O)N[C@@H](Cc1ccc(O)cc1)C(N)=O)[C@@H](C)O)C(C)C)[C@@H](C)O
notes: also called compound 89
B5: N^ε1-[(4S)-4-carboxy-4-(13-carboxytridecanoylamino)butanoyl]-[Arg17,Pro21,Pro27,His34]-h-amylin (peptide)
peptide: K([γGlu-C14 diacid])CNTATCATQRLANFLRHSSPNFGAIPSSTNVGHNTY-NH2
modifications: disulfide 2-7; N-terminus assumed
SMILES: CC[C@H](C)[C@H](NC(=O)[C@H](C)NC(=O)CNC(=O)[C@H](Cc1ccccc1)NC(=O)[C@H](CC(N)=O)NC(=O)[C@@H]1CCCN1C(=O)[C@H](CO)NC(=O)[C@H](CO)NC(=O)[C@H](Cc1c[nH]cn1)NC(=O)[C@H](CCCNC(=N)N)NC(=O)[C@H](CC(C)C)NC(=O)[C@H](Cc1ccccc1)NC(=O)[C@H](CC(N)=O)NC(=O)[C@H](C)NC(=O)[C@H](CC(C)C)NC(=O)[C@H](CCCNC(=N)N)NC(=O)[C@H](CCC(N)=O)NC(=O)[C@@H](NC(=O)[C@H](C)NC(=O)[C@@H]1CSSC[C@H](NC(=O)[C@@H](N)CCCCNC(=O)CC[C@H](NC(=O)CCCCCCCCCCCCC(=O)O)C(=O)O)C(=O)N[C@@H](CC(N)=O)C(=O)N[C@@H]([C@@H](C)O)C(=O)N[C@@H](C)C(=O)N[C@@H]([C@@H](C)O)C(=O)N1)[C@@H](C)O)C(=O)N1CCC[C@H]1C(=O)N[C@@H](CO)C(=O)N[C@@H](CO)C(=O)N[C@H](C(=O)N[C@@H](CC(N)=O)C(=O)N[C@H](C(=O)NCC(=O)N[C@@H](Cc1c[nH]cn1)C(=O)N[C@@H](CC(N)=O)C(=O)N[C@H](C(=O)N[C@@H](Cc1ccc(O)cc1)C(N)=O)[C@@H](C)O)C(C)C)[C@@H](C)O

These binders were tested against T1, human calcitonin receptor (assay: SPA competition on BHK cell membranes, 125I-calcitonin as radioligand (Assay VII)).
Summary of the method: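 BHK hCTR membranes 35 ng/μL + SPA beads 0.05 mg/well; buffer 50 mM Hepes pH 7.4, 1 mM CaCl2, 5 mM MgCl₂, 0.1% OA, 0.02% Tween20. 120 min, 25° C., shaking. Scintillation count; IC50 by one-site binding competition.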

Binder | IC50
B1 | 133 nM
B2 | 66.3 nM
B3 | 80.4 nM
B4 | 32.5 nM
B5 | 24.3 nM

The binders below were run against T2, human amylin receptor (amylin 3(a) …) (assay: SPA competition on BHK cell membranes, 125I-rat amylin as radioligand (Assay V)).
Description: The binding assay was performed using scintillation proximity assay (SPA) beads (RPNQ0001) from PerkinElmer and cell membranes from the Amylin 3(a)/CRE-luc cells (as described in Assay (II)) were used. Membranes were prepared in the following way; the cells were rinsed with PBS and incubated with Versene for approximately 5 min before harvesting. The cells were flushed with PBS and the cell-suspension was centrifuged for 5 min at 1000 rpm. Cells were homogenized (ultrathurrax) in a buffer containing 20 mM Na-HEPES and 10 mM EDTA (pH 7.4) and centrifuged at 20.000 rpm for 15 min. The resulting pellet was resuspended, homogenized and centrifuged (20.000 rpm, 15 min) in a buffer containing 20 mM Na-HEPES and 0.1 mM EDTA (pH 7.4, buffer 2). The resulting pellet was resuspended in buffer 2 and protein concentration was measured (BCA protein Assay, Pierce). The homogenate was kept cold during the whole procedure. The membranes were kept at −80° C. until use. The assay was performed in a 384 well Optiplate (PerkinElmer) in a total volume of 40 ul. Membranes were mixed with SPA beads. Final concentration of membranes 35 ng/μL final and SPA beads was 0.05 mg/well. Test-compounds were dissolved in DMSO and further diluted in assay buffer (50 mM Hepes, pH 7.4, 1 mM CaCl2, 5 mM MgCl₂, 0.1% OA and 0.02% Tween20). […] The final mixture was incubated with shaking at 400 rpm for 120 min at 25° C. prior to centrifugation (1500 rpm, 10 min). Samples were analyzed on TopCounter™ (Packard). The IC₅₀ was calculated using (one site binding competition analysis) GraphPad Prism5 as a measure of receptor affinity.

Binder | IC50
B1 | 0.833 nM
B2 | 1.01 nM
B3 | 0.876 nM
B4 | 1.16 nM
B5 | 1.04 nM

Each binder was assayed against T1, human calcitonin receptor (assay: ratio of hCTR IC50 to hAmylin-R IC50 (reference: human amylin receptor)).
Summary of the method: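 Competition binding by SPA with cell membranes (35 ng/μL) and SPA beads in 50 mM Hepes pH 7.4 with 1 mM CaCl2, 5 mM MgCl2, 0.1% OA and 0.02% Tween20. Incubated 120 min at 25 °C with shaking, then counted.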

Binder | Ratio hCT/hAmylin binding
B1 | 159
B2 | 65.3
B3 | 91.8
B4 | 28
B5 | 23.5
